Assay results: the supplement of paper PMC10126150
± gives the standard deviation of the averaged measurements.

System: ATP
Test: switch fluorescence ratio, 500 uM ATP over buffer (Cy3 cluster intensity, sum of 5 cycles each) (fold (ratio)); higher = stronger signal-on switching upon ATP binding; sequences stand for … in TCGTCGGCAGCGTCAGATGTGTATAAGAGACAGTTTTTTTTTTTTTTTTTTTTTTTTT…TC
Conditions: aptamer strand: ATP DNA aptamer (quencher-CACCTGGGGGAGTATTGCGGAGGAAGG + anchor), 100 nM annealed; ATP concentration: 500 uM
How it was run: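 Exposure to 500 uM ATP lasted 15 min at 22 °C before imaging, and a selection-buffer image was taken beforehand, for Cy3-labelled switching-strand clusters on a modified Illumina MiSeq flow-cell annealed to 100 nM quencher-labelled ATP aptamer. Five buffer/ATP cycles were run with NaOH stripping and re-annealing between them. The fluorescence ratio per cluster is summed target-cycle over summed buffer-cycle Cy3 intensity, averaged per switch-domain sequence. Clusters outside 100-1000 RFU were excluded.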

| Sequence | switch fluorescence ratio |
| --- | --- |
| GGGAGGGTTT | 0.98 ± 0.022 |
| CAGGCGGAAA | 0.98 ± 0.015 |
| GGATTATTG | 0.98 ± 0.032 |
| CGGATTAGTG | 0.964 ± 0.018 |
| ATGTTGTAAC | 0.985 ± 0.01 |
| TAAAATGTTG | 1.03 ± 0.033 |
| GTTTTTATGG | 0.997 ± 0.03 |
| AGGGCGGTAT | 1.0286 ± 0.00059 |
| GTGTTGTTTT | 0.987 ± 0.028 |
| GTTTTCTTAG | 0.9737 ± 0.0031 |
| TATGGTGTTC | 0.981 ± 0.015 |
| TCAAAGGGGG | 0.951 ± 0.023 |
| GTGGGGTTTT | 0.983 ± 0.022 |
| CGATTCGGTG | 0.9698 ± 0.0031 |
| AGGATGGTAT | 1.003 ± 0.01 |
| AGTGGTCCTT | 0.974 ± 0.047 |
| ACAAGTGTGC | 1.04 ± 0.018 |
| TGGGACTGTT | 0.986 ± 0.028 |
| AGGCGGGGCT | 0.97301 ± 0.00064 |
| GAAGCAGATG | 1.16 ± 0.033 |
| AAGGAATTGG | 0.992 ± 0.0042 |
| TAGGACCAGC | 0.98 ± 0.012 |
| GAAGGGTGGG | 1 ± 0.022 |
| GTAATTGTAA | 0.984 ± 0.012 |
| TAGATTTCTG | 0.989 ± 0.025 |

| Sequence | switch fluorescence ratio |
| --- | --- |
| TTTTGAAATC | 1.004 ± 0.0061 |
| TAAAGACGGG | 0.978 ± 0.013 |
| GAAATAGGTT | 0.989 ± 0.012 |
| TTTGGGGCTG | 1.04 ± 0.11 |
| GGTTATTTTT | 1.01 ± 0.036 |
| GCCGGACATT | 0.998 ± 0.02 |
| ACGTTAGGGT | 1.04 ± 0.058 |
| CGTGAGTTTG | 0.9888 ± 0.0082 |
| AGATGCCTGA | 0.989 ± 0.035 |
| GGATTCGATT | 0.987 ± 0.03 |
| ATTCTCTTAT | 1.02 ± 0.059 |
| TGTATAAATT | 0.9679 ± 0.0048 |
| GGCAGTGTAC | 1.18 ± 0.12 |
| CTAAAGAGCA | 1.03 ± 0.073 |
| AGGGGCCCGT | 0.99 ± 0.038 |
| AAAAAAGTAG | 1.03 ± 0.012 |
| TGCATGGGTG | 1.06 ± 0.039 |
| CGGTGGGAGA | 1.023 ± 0.0078 |
| TCGTCAGCTG | 1.02 ± 0.061 |
| TTGTGGGATA | 1.01 ± 0.011 |
| CGATATGTAG | 1.016 ± 0.0045 |
| TGATAACTCC | 1.03 ± 0.036 |
| CGACGCTTGT | 3.15 ± 0.38 |
| CCGCTTGGTT | 1.23 ± 0.028 |
| CTCCAGGGGA | 1.5 ± 0.49 |

| Sequence | switch fluorescence ratio |
| --- | --- |
| GGGTTATTTC | 1.02 ± 0.023 |
| TGTTGCAATA | 1.24 ± 0.4 |
| GAGGTTGTTT | 0.977 ± 0.02 |
| GGGTTGTCTG | 0.961 ± 0.063 |
| TGTTGGAGTG | 1.003 ± 0.0044 |
| CGTAGGGGCT | 1 ± 0.011 |
| GTGAAAAGGG | 0.963 ± 0.038 |
| GATATGGAAG | 1.13 ± 0.23 |
| ACGTGACAGG | 1.22 ± 0.013 |
| GTCCATTTTG | 1.01 ± 0.064 |
| GAAATTTTGT | 0.994 ± 0.012 |
| TTAAGAGGC | 1.01 ± 0.2 |
| CCTTTTGTGG | 1.015 ± 0.0068 |
| GGTGCAGGTA | 0.984 ± 0.025 |
| CTAGTGAGTG | 0.984 ± 0.036 |
| ATGTATTGAG | 1.008 ± 0.0025 |
| CATTTGCGCA | 1.022 ± 0.0084 |
| ATTGGTAAGG | 0.995 ± 0.025 |
| CAAAATTGGG | 0.956 ± 0.013 |
| AAAAGGAACT | 1.04 ± 0.044 |
| CAGGGAGCAG | 1.05 ± 0.03 |
| TTTTGTCTGT | 1.01 ± 0.016 |
| GAGGTGATAG | 1.036 ± 0.0033 |
| TAGGTTTTCG | 0.98974 ± 0.00052 |
| AGAGTCAGGC | 1.07 ± 0.044 |

| Sequence | switch fluorescence ratio |
| --- | --- |
| AGTATGTATA | 0.9957 ± 0.0083 |
| ATAAGAAGTG | 1.05 ± 0.072 |
| TTACGGGCGG | 1.03 ± 0.078 |
| ATCGGAGGGC | 1.02 ± 0.013 |
| TCACAATGCT | 1.55 ± 0.016 |
| GGGGGAGGAA | 0.978 ± 0.026 |
| ATGTTGCCGT | 1.01 ± 0.13 |
| CGGTATTTTT | 1.02 ± 0.028 |
| GTTGGGGGCG | 0.991 ± 0.052 |
| CATGTGTGGT | 1.004 ± 0.0078 |
| CTTAGGACGC | 1.22 ± 0.0055 |
| GATTAGGAGT | 0.985 ± 0.014 |
| TAAAGATAGG | 1.026 ± 0.0036 |
| TTTTTTGTCA | 1.02 ± 0.042 |
| TGTTTTGGG | 0.992 ± 0.042 |
| GCTCTATTAT | 1.11 ± 0.16 |
| TATATATAGG | 1 ± 0.025 |
| GGATGAGTTA | 0.983 ± 0.015 |
| GAACGGCTCT | 1.012 ± 0.0011 |
| AAAGGCCTG | 1.01 ± 0.017 |
| ATGTGCTTC | 1.005 ± 0.0078 |
| GTTTTCTTAT | 0.998 ± 0.029 |
| GTTTTCGGTA | 0.9802 ± 8.4e-05 |
| GGTATTCCGT | 1.03 ± 0.045 |
| AAACGTAACG | 1.07 ± 0.029 |
